Measured values taken from IntAct's records for PubMed 21968187.

B1: Amyloid beta precursor protein binding family B member 1 (Homo sapiens), O00213 (parent)
chain: MSVPSSLSQSAINANSHGGPALSLPLPLHAAHNQLLNAKLQATAVGPKDLRSAMGEGGGPEPGPANAKWLKEGQNQLRRAATAHRDQNRNVTLTLAEEASQEPEMAPLGPKGLIHLYSELELSAHNAANRGLRGPGLIISTQEQGPDEGEEKAAGEAEEEEEDDDDEEEEEDLSSPPGLPEPLESVEAPPRPQALTDGPREHSKSASLLFGMRNSAASDEDSSWATLSQGSPSYGSPEDTDSFWNPNAFETDSDLPAGWMRVQDTSGTYYWHIPTGTTQWEPPGRASPSQGSSPQEESQLTWTGFAHGEGFEDGEFWKDEPSDEAPMELGLKEPEEGTLTFPAQSLSPEPLPQEEEKLPPRNTNPGIKCFAVRSLGWVEMTEEELAPGRSSVAVNNCIRQLSYHKNNLHDPMSGGWGEGKDLLLQLEDETLKLVEPQSQALLHAQPIISIRVWGVGRDSGRERDFAYVARDKLTQMLKCHVFRCEAPAKNIATSLHEICSKIMAERRNARCLVNGLSLDHSKLVDVPFQVEFPAPKNELVQKFQVYYLGNVPVAKPVGVDVINGALESVLSSSSREQWTPSHVSVAPATLTILHQQTEAVLGECRVRFLSFLAVGRDVHTFAFIMAAGPASFCCHMFWCEPNAASLSEAVQAACMLRYQKCLDARSQASTSCLPAPPAESVARRVGWTVRRGVQSLWGSLKPKRLGAHTP

Variants of: B1
Settings: with lrp1_human LRP1, Q07954
Chain of lrp1_human LRP1, Q07954 (Q07954 whole entry): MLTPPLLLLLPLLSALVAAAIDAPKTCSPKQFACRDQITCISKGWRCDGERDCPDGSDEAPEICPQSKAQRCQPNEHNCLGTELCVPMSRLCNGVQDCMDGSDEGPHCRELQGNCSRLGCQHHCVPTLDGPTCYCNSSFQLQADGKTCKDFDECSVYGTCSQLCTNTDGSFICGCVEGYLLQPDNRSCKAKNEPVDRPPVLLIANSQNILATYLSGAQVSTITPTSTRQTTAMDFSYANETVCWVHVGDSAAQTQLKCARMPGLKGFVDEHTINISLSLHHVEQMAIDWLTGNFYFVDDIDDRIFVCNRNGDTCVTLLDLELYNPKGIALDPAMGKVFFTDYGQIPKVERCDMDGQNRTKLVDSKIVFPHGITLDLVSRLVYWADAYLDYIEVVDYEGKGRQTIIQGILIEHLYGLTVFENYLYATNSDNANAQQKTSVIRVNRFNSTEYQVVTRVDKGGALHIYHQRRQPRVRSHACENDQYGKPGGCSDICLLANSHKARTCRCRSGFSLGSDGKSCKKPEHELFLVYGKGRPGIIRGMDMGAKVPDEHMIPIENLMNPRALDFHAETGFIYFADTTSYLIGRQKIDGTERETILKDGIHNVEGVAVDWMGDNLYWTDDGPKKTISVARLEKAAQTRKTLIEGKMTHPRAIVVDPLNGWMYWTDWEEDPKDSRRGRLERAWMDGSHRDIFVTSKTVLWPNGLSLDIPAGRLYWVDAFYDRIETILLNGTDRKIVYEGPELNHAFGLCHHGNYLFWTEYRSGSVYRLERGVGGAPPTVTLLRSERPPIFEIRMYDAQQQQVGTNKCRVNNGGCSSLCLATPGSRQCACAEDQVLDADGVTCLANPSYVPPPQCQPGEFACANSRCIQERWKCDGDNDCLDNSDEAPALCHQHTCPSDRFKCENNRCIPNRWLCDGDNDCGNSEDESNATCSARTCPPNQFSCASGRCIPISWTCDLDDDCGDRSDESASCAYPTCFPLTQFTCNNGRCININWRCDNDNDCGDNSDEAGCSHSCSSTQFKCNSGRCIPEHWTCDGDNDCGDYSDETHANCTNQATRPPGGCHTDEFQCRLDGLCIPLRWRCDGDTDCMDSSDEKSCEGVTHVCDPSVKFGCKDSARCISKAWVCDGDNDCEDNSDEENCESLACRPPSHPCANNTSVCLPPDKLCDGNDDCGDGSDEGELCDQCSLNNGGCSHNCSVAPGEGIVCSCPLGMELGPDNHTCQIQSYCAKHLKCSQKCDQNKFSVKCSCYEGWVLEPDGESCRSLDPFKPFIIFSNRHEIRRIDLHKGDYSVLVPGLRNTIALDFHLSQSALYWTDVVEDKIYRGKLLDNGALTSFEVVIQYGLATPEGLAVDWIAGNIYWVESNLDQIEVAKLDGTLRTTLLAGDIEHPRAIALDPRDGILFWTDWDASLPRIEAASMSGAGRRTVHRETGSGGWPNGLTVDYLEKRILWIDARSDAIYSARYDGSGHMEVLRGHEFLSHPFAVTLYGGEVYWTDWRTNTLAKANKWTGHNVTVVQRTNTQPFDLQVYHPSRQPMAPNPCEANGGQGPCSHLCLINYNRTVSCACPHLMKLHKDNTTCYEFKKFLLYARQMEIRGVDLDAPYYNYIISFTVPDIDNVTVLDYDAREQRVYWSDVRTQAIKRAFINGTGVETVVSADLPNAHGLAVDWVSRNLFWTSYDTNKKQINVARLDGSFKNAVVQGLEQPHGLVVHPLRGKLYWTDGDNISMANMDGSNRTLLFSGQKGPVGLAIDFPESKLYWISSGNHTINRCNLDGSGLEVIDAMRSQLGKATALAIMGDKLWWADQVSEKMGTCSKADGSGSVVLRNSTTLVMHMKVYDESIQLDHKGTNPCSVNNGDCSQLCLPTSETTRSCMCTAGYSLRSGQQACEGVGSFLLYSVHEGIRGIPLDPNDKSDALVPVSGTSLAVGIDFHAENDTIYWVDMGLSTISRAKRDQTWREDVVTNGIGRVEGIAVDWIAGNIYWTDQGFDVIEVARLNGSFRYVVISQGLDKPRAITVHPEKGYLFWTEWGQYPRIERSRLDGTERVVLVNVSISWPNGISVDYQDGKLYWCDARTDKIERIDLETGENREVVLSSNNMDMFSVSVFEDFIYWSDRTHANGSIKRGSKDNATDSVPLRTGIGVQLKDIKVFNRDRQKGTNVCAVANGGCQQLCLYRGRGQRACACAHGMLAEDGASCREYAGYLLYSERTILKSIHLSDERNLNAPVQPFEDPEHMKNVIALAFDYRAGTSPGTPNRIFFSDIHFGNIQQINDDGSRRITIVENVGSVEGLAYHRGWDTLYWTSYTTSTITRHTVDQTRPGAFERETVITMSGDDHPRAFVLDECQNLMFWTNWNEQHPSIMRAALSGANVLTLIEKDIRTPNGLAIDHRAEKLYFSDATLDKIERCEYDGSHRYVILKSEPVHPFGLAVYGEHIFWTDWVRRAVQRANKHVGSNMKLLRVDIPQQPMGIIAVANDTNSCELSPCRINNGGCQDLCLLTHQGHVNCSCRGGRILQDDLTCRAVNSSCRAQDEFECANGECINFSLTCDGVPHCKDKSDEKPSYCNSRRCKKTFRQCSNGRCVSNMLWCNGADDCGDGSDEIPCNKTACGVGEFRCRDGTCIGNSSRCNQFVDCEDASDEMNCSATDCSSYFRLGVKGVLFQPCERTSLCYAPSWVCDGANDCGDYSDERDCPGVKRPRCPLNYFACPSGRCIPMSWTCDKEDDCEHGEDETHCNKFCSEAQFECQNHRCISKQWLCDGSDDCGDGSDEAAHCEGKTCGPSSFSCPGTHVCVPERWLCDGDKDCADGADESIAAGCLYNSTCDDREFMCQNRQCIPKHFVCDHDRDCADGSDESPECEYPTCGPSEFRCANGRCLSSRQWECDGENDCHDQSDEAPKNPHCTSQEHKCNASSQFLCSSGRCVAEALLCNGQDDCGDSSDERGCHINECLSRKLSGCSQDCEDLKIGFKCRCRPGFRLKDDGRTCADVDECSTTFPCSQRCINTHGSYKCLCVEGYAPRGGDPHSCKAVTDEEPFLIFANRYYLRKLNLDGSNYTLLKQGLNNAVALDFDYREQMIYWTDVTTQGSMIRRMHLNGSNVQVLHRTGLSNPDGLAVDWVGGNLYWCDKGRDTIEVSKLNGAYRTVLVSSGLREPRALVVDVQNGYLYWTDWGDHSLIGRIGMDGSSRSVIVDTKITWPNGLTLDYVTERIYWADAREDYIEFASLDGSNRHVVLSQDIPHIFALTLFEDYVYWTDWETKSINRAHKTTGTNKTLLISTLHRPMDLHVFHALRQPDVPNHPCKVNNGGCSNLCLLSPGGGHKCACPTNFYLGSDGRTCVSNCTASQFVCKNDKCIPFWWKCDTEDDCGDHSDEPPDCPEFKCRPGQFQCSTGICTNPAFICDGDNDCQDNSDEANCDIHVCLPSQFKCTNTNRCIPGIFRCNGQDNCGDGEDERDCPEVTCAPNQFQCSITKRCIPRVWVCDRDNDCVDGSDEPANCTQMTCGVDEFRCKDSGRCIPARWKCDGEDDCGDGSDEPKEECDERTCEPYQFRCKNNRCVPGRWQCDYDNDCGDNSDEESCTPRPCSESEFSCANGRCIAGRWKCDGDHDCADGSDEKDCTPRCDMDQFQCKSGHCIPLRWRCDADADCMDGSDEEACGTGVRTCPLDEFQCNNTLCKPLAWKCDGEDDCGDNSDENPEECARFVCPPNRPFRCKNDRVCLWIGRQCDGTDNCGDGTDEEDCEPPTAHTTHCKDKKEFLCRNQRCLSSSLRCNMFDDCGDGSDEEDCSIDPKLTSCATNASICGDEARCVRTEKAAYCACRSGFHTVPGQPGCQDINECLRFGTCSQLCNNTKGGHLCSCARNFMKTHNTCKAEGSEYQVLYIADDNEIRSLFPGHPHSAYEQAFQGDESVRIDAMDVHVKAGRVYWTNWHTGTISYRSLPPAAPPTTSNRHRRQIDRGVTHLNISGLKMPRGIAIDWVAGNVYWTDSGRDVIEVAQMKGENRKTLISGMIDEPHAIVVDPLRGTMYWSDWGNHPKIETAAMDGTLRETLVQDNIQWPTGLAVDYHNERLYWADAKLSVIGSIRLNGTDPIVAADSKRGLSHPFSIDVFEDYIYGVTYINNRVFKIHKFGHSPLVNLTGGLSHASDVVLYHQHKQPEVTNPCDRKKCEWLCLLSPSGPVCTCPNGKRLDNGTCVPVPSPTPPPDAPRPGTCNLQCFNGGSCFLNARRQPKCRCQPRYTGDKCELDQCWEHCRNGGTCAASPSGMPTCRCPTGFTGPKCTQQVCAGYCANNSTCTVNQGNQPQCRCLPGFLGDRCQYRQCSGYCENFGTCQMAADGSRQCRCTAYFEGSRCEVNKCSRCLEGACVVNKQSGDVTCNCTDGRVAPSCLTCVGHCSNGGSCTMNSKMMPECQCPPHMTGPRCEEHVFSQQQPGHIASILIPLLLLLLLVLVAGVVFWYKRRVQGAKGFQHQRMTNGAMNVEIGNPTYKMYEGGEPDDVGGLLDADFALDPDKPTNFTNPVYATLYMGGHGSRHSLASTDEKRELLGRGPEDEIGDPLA

Variant | effect of a mutation on the interaction
R451A | disrupting interaction
R470A | disrupting interaction
